Target: the molecule itself
Experiment: cryo-EM structure

B1: MinCys EAAT3 K269C/W441C crosslinked using Hg2+ (EAAT3-X) (natural protein, human, UniProt P43005 1-524, looked up)
chain: MGKPARKGAEWKRFLKNNWVLLSTVAAVVLGITTGVLVREHSNLSTLEKFYFAFPGEILMRMLKLIILPLIISSMITGVAALDSNVSGKIGLRAVVYYFATTLIAVILGIVLVVSIKPGVTQKVGEIARTGSTPEVSTVDAMLDLIRNMFPENLVQAAFQQYKTKREEVKPPSDPEMTMTEESFTAVMTTAISKTKTKEYKIVGMYSDGINVLGLIVFALVFGLVIGKMGEKGQILVDFFNALSDATMKIVQIIMWYMPLGILFLIAGCIIEVEDWEIFRKLGLYMATVLTGLAIHSIVILPLIYFIVVRKNPFRFAMGMAQALLTALMISSSSATLPVTFRCAEENNQVDKRITRFVLPVGATINMDGTALYEAVAAVFIAQLNDLDLGIGQIITISITATSASIGAAGVPQAGLVTMVIVLSAVGLPAEDVTLIIAVDCLLDRFRTMVNVLGDAFGTGIVEKLSKKELEQMDVSSEVNIVNPFALESTILDNEDSDTKKSYVNGGFAVDKSDTISFTQTSQF
modifications: Hg2+ crosslink between C269 and C441
binding result: binds

Reference: publication doi:10.1101/2022.08.12.503774 (bioRxiv, 2022)
